Experiments:
MS2 coat protein [1] = test: apparent KD of MS2 coat protein, switch OFF state (with FMN for OFF switches, without FMN for ON switches); designed switch direction (-1 OFF switch, 1 ON switch): -1; higher = weaker reporter binding; details: FMN input: 0 or 200 uM; Eterna round: R93 (includes R88 designs)
Outline: (§1)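 Normalised binding curves from single clusters were fitted, and the median fit for each design is given as apparent KD. The clusters held designed RNA switches transcribed on-chip from Illumina sequencing clusters. These were titrated with SNAP-549-labelled MS2 coat protein (twofold steps from 0.7 or 1.5 nM to 3 µM, 0.8–1.5 h to 10–20 min per step) in 100 mM Tris-HCl pH 7.5, 80 mM KCl, 4 mM MgCl2, without or with constant ligand.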

MS2 coat protein [2] = test: apparent KD of MS2 coat protein, switch ON state; designed switch direction (-1 OFF switch, 1 ON switch): -1; higher = weaker reporter binding; details: FMN input: 0 or 200 uM; Eterna round: R93 (includes R88 designs)
Outline: as §1

Sequence | apparent KD of MS2 coat protein (MS2 coat protein [1]) [nM] | apparent KD of MS2 coat protein (MS2 coat protein [2]) [nM]
UAAAGACAUGAGGAUCACCCAUGUGAGGAUAUGUGAGACAACAGAACAUCAAGUACAAGCAGAAGGCACAGAAA [JR_Exc001_Sub019] | 62.7 | 51.8
AGAAAACAUGAGGAUCACCCAUGUGAGGAUAUGCGAAUAAAGAAACAAAUAAAAGAAAGCAGAAGGCACAACAA [Ex 1 Tesla 4] | 36 | 31.9
AAAGAUGCAGGAUAUACAUGAGGAUCACCCAUGUUAGACCAAAAAUGGGAAAAAGAAAGUAGAAGGGCAUAAAA [Ex 3 May 34] | 203 | 43.2
AAAAAGUCAGGAUAUACAAAAGUGCGAAAGCACAAAAUGGGACAUGAGGAUCACCCAUGUAGAAGGGACAAGAA [JL In the Red 01 (Mod)] | 472 | 148
UUAACACAUGAGGAUCACCCAUGUUAGGAUAUUGUGGUAGGAACAACUGGGAAACGCACAAGAAGGGACACACA [EX1 Malc#18 Mod 18 - Jieux - Exclusion 1] | 26.6 | 29.2
AAAGGGUCAGGAUAUCGUUUAAUAAUAAAAUAAAUAAAGAACGAGAAGGGACAUGAGGAUCACCCAUGUAUAAA [May 76] | 89.8 | 65.3
AACAGGACAGGAUAUACAUGAGGAUCACCCAUGUAGGAAUUAAGCAGAGUACCACACAGUAGAAGGGUCAUGGA [Ruby 26] | 30.4 | 27.6
AGCUAGUCAGGAUAUACGAAAAUGUCAGAAGACGUAAGGGAACAUGAGGAUCACCCAUGUAGAAGGGACUAGCA [Diamond 41] | 108 | 30.7
AGAAAGUCAGGAUAUGCAGAUAAAAAAACGAAAAAAAAUCUGCAGAAGGGACAUGAGGAUCACCCAUGUAAAGA [Mat - Exclusion 4 - Mayanna - D111] | 40.2 | 52.3
AAAAAGUCAGGAUAUACAUGAGGAUCACCCAUGUGAAAGAACGAUUAACGACCAGCAAGUAGAAGGGACAAAAA [Ruby 80] | 20.8 | 22
AAAAAACAUGAGGAUCACCCAUGUGAGGAUAUGACGUAAAUAAAGAAAUAAGAAAUCGUCAGAAGGCACAAAAA [Mat - Exclusion 1 - Eli mod - D73] | 41.7 | 28.6
AAGAAGCUAGGAUAUACUAACGAAACUAAUGCAUAGAUAAAACAUGAGGAUCACCCAUGUAGAAGGAGCAGAAU [JR_Exc002_Sub014] | 20.6 | 21.6
AAAAGGUCAGGAUAUGCCCGCCGGGUGGGAAGGCCGGGUGGGUAGAAGGGACAUGAGGAUCACCCAUGUAAAAA [Opal 42] | 47.9 | 52.4
AAUAAACAUGAGGAUCACCCAUGUCAGGAUAUGCAUCUAACCUAAUAACAUAAAUACAGCAGAAGGGACUAAUA [JR_Exc001_Sub602] | 25 | 26.8
AAAAAGUCAGGAUAUUCGGAUAGGAAAACGAAAACCUAUCCGAAGAAGGGACAUGAGGAUCACCCAUGUAAAAA [Ecls4-II] | 46.1 | 48.9
AAAAAGUCAGGAUAUGUAGCAAAAAGUGAUCCAAAAAAGCUACAGAAGGGACAUGAGGAUCACCCAUGUAAAAA [Ex4: 931] | 98.2 | 86.5
CUCAAGUAAGGAUAUUUAUGAAAUGAAGUGAAAGAAAAGAAAAAGAAGGUACAUGAGGAUCACCCAUGUUAGAA [EteRNA is fun!] | 19.6 | 32.8
AAAAAGUGAGGAUAUACGCGAACAAAAAUAAAAAAGAAAGCGUAGAAGGCACAUGAGGAUCACCCAUGUCCAAA [Alfred 64% 5] | 41.1 | 27.7
AAGAAGGCAGGAUAUACAUGAGGAUCACCCAUGUAAAAGAAAGAGGGAAAAGAGAAAAGUAGAAGGGCCAAGAA [Setepenre-meryamun Alexander III] | 75 | 27.8
AAAAAGUCAGGAUAUACAUGAGGAUCACCCAUGUGAAAGAACGAUUAACGAAAAGCAAGUAGAAGGGACAAAAA [Ruby 79] | 23.7 | 22.1
AAAAAUGGAGGAUAUACAUGAGGAUCACCCAUGUGUGACUAUACUAAGCGCUCUUCAGGUAGAAGGCCAAAAAA [Gilly Gone Silly 17 - Jieux - Exclusion 3] | 60.3 | 43.8
CUUAUGUGAGGAUAUGUACAGAAAAAAAAGGGUGUAACUGUACAGAAGGCACAUGAGGAUCACCCAUGUGAAUA [EX4 380: S S Pseudoknot 5] | 25.1 | 61.9
AACAGUACAGGAUAUACAUGAGGAUCACCCAUGUAAAAAUAAUAAAAGGGAAAAACUCGUAGAAGGGUACUGGA [Moding Maslow revisited (73) 16] | 104 | 63.2

Sequence | apparent KD of MS2 coat protein (MS2 coat protein [1]) [nM] | apparent KD of MS2 coat protein (MS2 coat protein [2]) [nM]
GGAGGCGAAGGAUAUACAUGAGGAUCACCCAUGUGAGAGAAAAAAGUGAGAAAGAAAAGUAGAAGGUCGUUUCG [salish99-ex3-128] | 81 | 43.5
AAGUUAUUAGGAUAUACUUGUGCGAUUAAUACGUUGAUAGUACAUGAGGAUCACCCAUGUAGAAGGAAUAAAAA [JR_Exc002_Sub411] | 25.9 | 38.4
CUCUUGUGAGGAUAUGUAAGAAAAGAAGAGAAAGAAAAGAAACAGAAGGCACAUGAGGAUCACCCAUGUAAGAA [EteRNA is fun!] | 146 | 52.8
AUAGUACAUGAGGAUCACCCAUGUCAGGAUAUUGGAUAUGACAAAAAAAAAAAGUUAACGAGAAGGGACUAUAA [EX1 Malc#15] | 36.6 | 31.2
CUCUUGUCAGGAUAUGCAAGAAAAGAAAAGAAAGAAAAGAAGCAGAAGGGACAUGAGGAUCACCCAUGUAAGAA [EteRNA is fun!] | 77.7 | 76.7
AAUAAACAUGAGGAUCACCCAUGUGAGGAUAUGGUAUAAUAAGGACAGUAAUGAUAAACCAGAAGGCACAAAUA [JR_Exc001_Sub1102] | 34.7 | 30.5
AACAGUACAGGAUAUACAUGAGGAUCACCCAUGUGAGAAUUAAGUAGAUUGCCACAAAGUAGAAGGGUACUGGA [Ruby 98] | 80.9 | 59.3
AUGGUAGGAGGAUAUACAUAGAUACAGAUACAUGUAGACGUACAUGAGGAUCACCCAUGUAGAAGGCCUAUAAA [Mat - Same state - Mayanna Mod - D150] | 82.3 | 97.9
AAGAAGUAAGGAUAUGCUGCUCGUCACAAAAGUGAUGAGUAGCAGAAGGUACAUGAGGAUCACCCAUGUAAAUA [Opal 32] | 17.2 | 25.3
ACCAAUGGAGGAUAUACAUGAGGAUCACCCAUGUUUAUCCUACAUAGGUGAAAAAUAUGUAGAAGGCCAUAGGA [EX3 238: Super Stable 38] | 10.8 | 13.2
AUAGGGCUAGGAUAUACAUGAGGAUCACCCAUGUAAACAGAUAGAUCAAGGUAAACGAGUAGAAGGAGCAAUAA [JR_Exc003_Sub210] | 18.8 | 19.5
AACAUGUGAGGAUAUUUAAGAAAAGAAAAGAAAGAAAAGAAAAAGAAGGCACAUGAGGAUCACCCAUGUAAGAA [EteRNA is fun!] | 26 | 24.1
CCCUCACAUGAGGAUCACCCAUGUUAGGAUAUCUACCAGGAGCCUAAAAUGGCCCAACGGAGAAGGAACGUGCA [Arbire] | 16.9 | 19.2
AGAAAGUGAGGAUAUCGAAGACUGUCGAAAAGACAGUCGAACGAGAAGGCACAUGAGGAUCACCCAUGUGAGGG [Mat - Exaclusion 4 - Eli mod - D67] | 58.2 | 76.3
AUCAUGUAAGGAUAUAUAAGAAAAGAAAAGAAAGAAAAGAAAUAGAAGGUACAUGAGGAUCACCCAUGUAAGAA [EteRNA is fun!] | 15.6 | 30.8
AGGAAACAUGAGGAUCACCCAUGUGAGGAUAUAGGAAAGAAAAGAAAAGAAAGAAGAAUUAGAAGGCACAAGAA [Djet] | 14.9 | 20.5
AAGAAGUCAGGAUAUGCCAAAGAUCACGAAAGUGACUAAGGGCAGAAGGGACAUGAGGAUCACCCAUGUAAAGA [Opal 4] | 52.8 | 42.9
AAAAGUGGAGGAUAUACAUGAGGAUCACCCAUGUGUAAAAAUAAAAACACAAAAGAAAGUAGAAGGCCACAAAA [Ex 3 May 9] | 55.2 | 24.1
AGUGAGUGAGGAUAUGAGUGAACAACAAAACAAAUAACGACUCAGAAGGCACAUGAGGAUCACCCAUGUACACA [May 68] | 22.3 | 24
UCCACACAUGAGGAUCACCCAUGUGAGGAUAUCUAGAAAACCUCAUGUAAAAAAAUCUAGAGAAGGCACAUGAA [Design 92: Pseudoknot B] | 25 | 24
AAAAACGGAGGAUAUACAAAUUAAGGAAGAAAACACGAAAAACAUGAGGAUCACCCAUGUAGAAGGCCGGAAAA [Ex 2 #3] | 29.7 | 24.1
CUCUUGUAAGGAUAUCACCACACAAAAAAAAAAAAGUGUGGUGAGAAGGUACAUGAGGAUCACCCAUGUACUAA [Banishment 12 - Jieux - Exclusion 4] | 25.2 | 23.6
